The target of data set [1] is RPA70 residues 181-616 (70ABC subunit of the human RPA DNA-binding core, RPA-DBC) (human, UniProt P27694 181-616). In words: SEC-MALS.
Data set [2] addresses RPA-DBC (RPA70ABC/32D/14 DNA-binding core) (human, UniProt P27694;P15927;P35244 181-616;43-171;1-121). In words: SANS / gel filtration. For orientation: Size exclusion chromatography separates by hydrodynamic size, large species first.

Sequence of RPA-DBC (RPA70ABC/32D/14 DNA-binding core) (P27694 181-616, chain 1 of 2): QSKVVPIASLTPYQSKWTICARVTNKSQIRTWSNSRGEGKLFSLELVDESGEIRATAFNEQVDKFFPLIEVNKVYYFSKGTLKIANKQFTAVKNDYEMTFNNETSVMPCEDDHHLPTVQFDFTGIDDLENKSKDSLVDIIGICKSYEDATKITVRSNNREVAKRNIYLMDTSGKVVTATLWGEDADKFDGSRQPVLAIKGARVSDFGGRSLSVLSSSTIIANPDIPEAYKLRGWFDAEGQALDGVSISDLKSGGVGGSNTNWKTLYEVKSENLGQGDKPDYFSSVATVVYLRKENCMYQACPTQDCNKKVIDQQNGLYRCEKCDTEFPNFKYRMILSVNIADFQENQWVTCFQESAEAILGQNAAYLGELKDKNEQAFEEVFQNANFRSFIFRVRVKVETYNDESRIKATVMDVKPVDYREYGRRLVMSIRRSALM
Sequence of RPA-DBC (RPA70ABC/32D/14 DNA-binding core) (P35244 whole entry, chain 3 of 2): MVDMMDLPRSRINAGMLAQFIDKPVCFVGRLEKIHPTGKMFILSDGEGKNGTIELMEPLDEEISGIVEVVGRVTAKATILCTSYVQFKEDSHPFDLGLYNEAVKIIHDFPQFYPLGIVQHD
Sequence of RPA70 residues 181-616 (70ABC subunit of the human RPA DNA-binding core, RPA-DBC) (P27694 181-616): as the sequence (P27694 181-616, chain 1 of 2) above

B1: RPA32 residues 43-171 (32D subunit of the human RPA DNA-binding core, RPA-DBC) (domain or fragment)
chain: AQHIVPCTISQLLSATLVDEVFRIGNVEISQVTIVGIIRHAEKAPTNIVYKIDDMTAAPMDVRQWVDTDDTSSENTVVPPETYVKVAGHLRSFQNKKSLVAFKIMPLEDMNEFTTHILEVINAHMVLSK
As for B1, the binding result in data set [1] was “binds”. Take TTTTTTTTTTTTTTTTTTTTTTTTTTTTTT (ssDNA) [dT30]: in data set [2], the binding result is given as “binds”.

For the origin of these results see publication PMC3575853 (Nucleic Acids Research, 2013).
